# Source: patent US12252714B2, “Halogenation of complex organic compounds” (REGENTS OF THE UNIVERSITY OF MICHIGAN, priority 2018, dated 2025)
# Assay: MalA biochemical activity assays, mutants versus wild-type MalA
# Method: Biochemical activity assays were performed in a 100 μL volume with the following components: 18 μM MalA, 54 μM HpaC flavin reductase,^3 100 μM FAD, 50 mM NaCl, 250 μM substrate, 5 mM NADH, and brought to total volume with reaction buffer (same as storage bufferNaBr). The chlorination reactions proceeded for 20 minutes and the bromination reactions proceeded overnight. The reactions were extracted with ethyl acetate ([…], in triplicate) and dried down under nitrogen gas. The dried extract was resuspended in LC/MS grade methanol to a concentration of around 10 μM for LC/MS analysis. High resolution mass spectrometry was performed using electrospray ionization on an Agilent quadrupole time-of-flight spectrometer (Q-TOF 6500 series). Biochemical activity was monitored via the following HPLC method using acetonitrile and water: 65% acetonitrile for 5 minutes, gradient over 10 minutes to 95% acetonitrile, 95% acetonitrile for 5 minutes, gradient over 2 minutes to 65% acetonitrile, 65% acetonitrile for 11 minutes to re-equilibrate with a flow rate of 0.3 mL/minute, monitoring at 240 nm on a Phenomenex Lux cellulose-3, cellulose Tris (4-methylbenzoate) 250×4.6 mm column.
Molecule,halogenase activity relative to wild-type MalA (chlorination of compound 2),further results
"MalA′: flavin-dependent halogenase from M. graminicola, generated by site-directed mutagenesis of malA: L276P/R428P (protein, UniProt L0E155 1-667, looked up, variant L276P R428P) Flavin-dependent halogenase …: MAPTPKYTFTERAAAGNLSDAEILNSNNPTGSELPDESDVVVGGAGIHGLIYALHASKYKPNNLKISVIEKNTRPGYKIGESTLPIFYTWCKLHGISAAYLLRLFGLKDGLCFYFLDRENQGQYTDFCSVGAPGLVLASLQIERPMSELLFTILAQRNGVNVYHGREVDFKSTVVQGGGQGNKIAVSRGKYDSTPKTIDSALFVDATGRFRQFCSKKAPRHRFDGWNCNAFWGYFTAPKDESKIPFDLYEGDHTNHLCFPEGWVWVIRLPSWEGSPIANLMDMVTYILECADAGVPGDELPSSEELARMFGLKFQWVTSIGFAVRNDVKYPEDLSAYGTREAEQKFNYFVQKYELLQQFMSNFELIENLYGPGTTWFIRKTLAYQSPVVSGPGWLAIGDACGFTNPLYSPGINVGMSTSTWAAQLSHPIVEIGKSAPADAAESSIRKLLVPYDDYCKSLVPALEQMNRFNYVCYRDTRLGPQVACLWQFFAGIERYLSDVNIETFAHYAIKWVWGAMVPEYQQVAQKCIEHIETVPLDERLPDAMVDELLAFSNRIKSAAVAADDFSLRWDAILRSFDRSLNFVEGKTSRDIYTRQCSGCGAWLQLRPDWKKCHSCGLLGTEPQTAVTFDPPLTAEEEALLYAAWNTAPKYDPSKELKLPTPTRPAA",essentially identical to MalA,
"E494A: MalA halogenase variant, Glu494 substituted with alanine (protein, UniProt L0E155 1-667, looked up, variant E494A) Flavin-dependent halogenase …: MAPTPKYTFTERAAAGNLSDAEILNSNNPTGSELPDESDVVVGGAGIHGLIYALHASKYKPNNLKISVIEKNTRPGYKIGESTLPIFYTWCKLHGISAAYLLRLFGLKDGLCFYFLDRENQGQYTDFCSVGAPGLVLASLQIERPMSELLFTILAQRNGVNVYHGREVDFKSTVVQGGGQGNKIAVSRGKYDSTPKTIDSALFVDATGRFRQFCSKKAPRHRFDGWNCNAFWGYFTAPKDESKIPFDLYEGDHTNHLCFPEGWVWVIRLPSWEGSLIANLMDMVTYILECADAGVPGDELPSSEELARMFGLKFQWVTSIGFAVRNDVKYPEDLSAYGTREAEQKFNYFVQKYELLQQFMSNFELIENLYGPGTTWFIRKTLAYQSPVVSGPGWLAIGDACGFTNPLYSPGINVGMSTSTWAAQLSHRIVEIGKSAPADAAESSIRKLLVPYDDYCKSLVPALEQMNRFNYVCYRDTRLGPQVACLWQFFAGIARYLSDVNIETFAHYAIKWVWGAMVPEYQQVAQKCIEHIETVPLDERLPDAMVDELLAFSNRIKSAAVAADDFSLRWDAILRSFDRSLNFVEGKTSRDIYTRQCSGCGAWLQLRPDWKKCHSCGLLGTEPQTAVTFDPPLTAEEEALLYAAWNTAPKYDPSKELKLPTPTRPAA",inactivated,
"MalA W265A: MalA flavin-dependent halogenase variant with W265A substitution (protein, UniProt L0E155 1-667, looked up, variant W265A) Flavin-dependent halogenase …: MAPTPKYTFTERAAAGNLSDAEILNSNNPTGSELPDESDVVVGGAGIHGLIYALHASKYKPNNLKISVIEKNTRPGYKIGESTLPIFYTWCKLHGISAAYLLRLFGLKDGLCFYFLDRENQGQYTDFCSVGAPGLVLASLQIERPMSELLFTILAQRNGVNVYHGREVDFKSTVVQGGGQGNKIAVSRGKYDSTPKTIDSALFVDATGRFRQFCSKKAPRHRFDGWNCNAFWGYFTAPKDESKIPFDLYEGDHTNHLCFPEGWVAVIRLPSWEGSLIANLMDMVTYILECADAGVPGDELPSSEELARMFGLKFQWVTSIGFAVRNDVKYPEDLSAYGTREAEQKFNYFVQKYELLQQFMSNFELIENLYGPGTTWFIRKTLAYQSPVVSGPGWLAIGDACGFTNPLYSPGINVGMSTSTWAAQLSHRIVEIGKSAPADAAESSIRKLLVPYDDYCKSLVPALEQMNRFNYVCYRDTRLGPQVACLWQFFAGIERYLSDVNIETFAHYAIKWVWGAMVPEYQQVAQKCIEHIETVPLDERLPDAMVDELLAFSNRIKSAAVAADDFSLRWDAILRSFDRSLNFVEGKTSRDIYTRQCSGCGAWLQLRPDWKKCHSCGLLGTEPQTAVTFDPPLTAEEEALLYAAWNTAPKYDPSKELKLPTPTRPAA",drastic decrease in activity,
"E494D: MalA halogenase variant, Glu494 substituted with aspartate (protein, listed as Malbranchea graminicola, Wild-type MalA' protein, MalA halogenase variant, Glu494 substituted with aspartate) MAPTPKYTFTERAAAGNLSDAEILNSNNPTGSELPDESDVVVGGAGIHGLIYALHASKYKPNNLKISVIEKNTRPGYKIGESTLPIFYTWCKLHGISAAYLLRLFGLKDGLCFYFLDRENQGQYTDFCSVGAPGLVLASLQIERPMSELLFTILAQRNGVNVYHGREVDFKSTVVQGGGQGNKIAVSRGKYDSTPKTIDSALFVDATGRFRQFCSKKAPRHRFDGWNCNAFWGYFTAPKDESKIPFDLYEGDHTNHLCFPEGWVWVIRLPSWEGSPIANLMDMVTYILECADAGVPGDELPSSEELARMFGLKFQWVTSIGFAVRNDVKYPEDLSAYGTREAEQKFNYFVQKYELLQQFMSNFELIENLYGPGTTWFIRKTLAYQSPVVSGPGWLAIGDACGFTNPLYSPGINVGMSTSTWAAQLSHPIVEIGKSAPADAAESSIRKLLVPYDDYCKSLVPALEQMNRFNYVCYRDTRLGPQVACLWQFFAGIDRYLSDVNIETFAHYAIKWVWGAMVPEYQQVAQKCIEHIETVPLDERLPDAMVDELLAFSNRIKSAAVAADDFSLRWDAILRSFDRSLNFVEGKTSRDIYTRQCSGCGAWLQLRPDWKKCHSCGLLGTEPQTAVTFDPPLTAEEEALLYAAWNTAPKYDPSKELKLPTPTRPAA",slight activity,
"MalA W263A: MalA flavin-dependent halogenase variant with W263A substitution (protein, UniProt L0E155 1-667, looked up, variant W263A) Flavin-dependent halogenase …: MAPTPKYTFTERAAAGNLSDAEILNSNNPTGSELPDESDVVVGGAGIHGLIYALHASKYKPNNLKISVIEKNTRPGYKIGESTLPIFYTWCKLHGISAAYLLRLFGLKDGLCFYFLDRENQGQYTDFCSVGAPGLVLASLQIERPMSELLFTILAQRNGVNVYHGREVDFKSTVVQGGGQGNKIAVSRGKYDSTPKTIDSALFVDATGRFRQFCSKKAPRHRFDGWNCNAFWGYFTAPKDESKIPFDLYEGDHTNHLCFPEGAVWVIRLPSWEGSLIANLMDMVTYILECADAGVPGDELPSSEELARMFGLKFQWVTSIGFAVRNDVKYPEDLSAYGTREAEQKFNYFVQKYELLQQFMSNFELIENLYGPGTTWFIRKTLAYQSPVVSGPGWLAIGDACGFTNPLYSPGINVGMSTSTWAAQLSHRIVEIGKSAPADAAESSIRKLLVPYDDYCKSLVPALEQMNRFNYVCYRDTRLGPQVACLWQFFAGIERYLSDVNIETFAHYAIKWVWGAMVPEYQQVAQKCIEHIETVPLDERLPDAMVDELLAFSNRIKSAAVAADDFSLRWDAILRSFDRSLNFVEGKTSRDIYTRQCSGCGAWLQLRPDWKKCHSCGLLGTEPQTAVTFDPPLTAEEEALLYAAWNTAPKYDPSKELKLPTPTRPAA",,production of compound 1 relative to wild-type MalA (chlorination of compound 2): 5%; production of compound 3 relative to wild-type MalA (chlorination of compound 2): 50%; production of compound 4 relative to wild-type MalA (chlorination of compound 2): 60%
"E494Q: MalA halogenase variant, Glu494 substituted with glutamine (protein, UniProt L0E155 1-667, looked up, variant E494Q) Flavin-dependent halogenase …: MAPTPKYTFTERAAAGNLSDAEILNSNNPTGSELPDESDVVVGGAGIHGLIYALHASKYKPNNLKISVIEKNTRPGYKIGESTLPIFYTWCKLHGISAAYLLRLFGLKDGLCFYFLDRENQGQYTDFCSVGAPGLVLASLQIERPMSELLFTILAQRNGVNVYHGREVDFKSTVVQGGGQGNKIAVSRGKYDSTPKTIDSALFVDATGRFRQFCSKKAPRHRFDGWNCNAFWGYFTAPKDESKIPFDLYEGDHTNHLCFPEGWVWVIRLPSWEGSLIANLMDMVTYILECADAGVPGDELPSSEELARMFGLKFQWVTSIGFAVRNDVKYPEDLSAYGTREAEQKFNYFVQKYELLQQFMSNFELIENLYGPGTTWFIRKTLAYQSPVVSGPGWLAIGDACGFTNPLYSPGINVGMSTSTWAAQLSHRIVEIGKSAPADAAESSIRKLLVPYDDYCKSLVPALEQMNRFNYVCYRDTRLGPQVACLWQFFAGIQRYLSDVNIETFAHYAIKWVWGAMVPEYQQVAQKCIEHIETVPLDERLPDAMVDELLAFSNRIKSAAVAADDFSLRWDAILRSFDRSLNFVEGKTSRDIYTRQCSGCGAWLQLRPDWKKCHSCGLLGTEPQTAVTFDPPLTAEEEALLYAAWNTAPKYDPSKELKLPTPTRPAA",inactivated,
"MalA H253A: MalA halogenase variant, His253 substituted with alanine (protein, UniProt L0E155 1-667, looked up, variant H253A) Flavin-dependent halogenase …: MAPTPKYTFTERAAAGNLSDAEILNSNNPTGSELPDESDVVVGGAGIHGLIYALHASKYKPNNLKISVIEKNTRPGYKIGESTLPIFYTWCKLHGISAAYLLRLFGLKDGLCFYFLDRENQGQYTDFCSVGAPGLVLASLQIERPMSELLFTILAQRNGVNVYHGREVDFKSTVVQGGGQGNKIAVSRGKYDSTPKTIDSALFVDATGRFRQFCSKKAPRHRFDGWNCNAFWGYFTAPKDESKIPFDLYEGDATNHLCFPEGWVWVIRLPSWEGSLIANLMDMVTYILECADAGVPGDELPSSEELARMFGLKFQWVTSIGFAVRNDVKYPEDLSAYGTREAEQKFNYFVQKYELLQQFMSNFELIENLYGPGTTWFIRKTLAYQSPVVSGPGWLAIGDACGFTNPLYSPGINVGMSTSTWAAQLSHRIVEIGKSAPADAAESSIRKLLVPYDDYCKSLVPALEQMNRFNYVCYRDTRLGPQVACLWQFFAGIERYLSDVNIETFAHYAIKWVWGAMVPEYQQVAQKCIEHIETVPLDERLPDAMVDELLAFSNRIKSAAVAADDFSLRWDAILRSFDRSLNFVEGKTSRDIYTRQCSGCGAWLQLRPDWKKCHSCGLLGTEPQTAVTFDPPLTAEEEALLYAAWNTAPKYDPSKELKLPTPTRPAA",,"site-selectivity profile of bromination (bromination of compound 2): same product profile as the wild-type MalA; site-selectivity of chlorination (chlorination of compound 2, C8 versus C9): selective for producing the C9-chlorinated compound 3"
